# In paper PMC10474099, “SLC39A10 promotes malignant phenotypes of gastric cancer cells by activating the CK2-mediated MAPK/ERK and PI3K/AKT pathways” (Experimental & Molecular Medicine, 2023):
# B1: CK2β (casein kinase 2 regulatory β subunit), human, recombinant His-tagged (natural protein)
# chain: not shown
# notes: human CK2β (casein kinase 2 beta subunit), Gene ID 1460, CSNK2B; cloned into pET-28a(+); The plasmid is named pET-28a (+)-HIS-CK2β; also called CSNK2B; HIS-CK2β
# Molecular target: the molecule itself
# Test: native gel or EMSA; native PAGE with Coomassie blue staining; CK2β refolded in 20 mM Tris pH 7.2, 5 mM DTT with 4 μM ZnSO4 (presence of Zn2+); monomer to dimer
protein,measurement,value
B1,stoichiometry N,2
